Test results reported in patent US20220002427A1 (ENGMAB SARL, published 2022).
“And” between values parts separate entries of the source, which are not always exact repeats. Equal entries are not always repeated.

Tests used:
human BCMA on cells [1] = molecular target: T1, human BCMA on cells (human, UniProt Q02223 1-184); assay: cell-based or functional assay
T1 sequence (looked up): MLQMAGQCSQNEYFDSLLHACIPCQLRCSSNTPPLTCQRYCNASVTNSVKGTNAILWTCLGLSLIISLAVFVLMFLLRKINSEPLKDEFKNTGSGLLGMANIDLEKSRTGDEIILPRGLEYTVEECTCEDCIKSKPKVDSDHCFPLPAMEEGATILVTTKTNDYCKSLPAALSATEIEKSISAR

human BCMA on cells [2] = molecular target: T1, human BCMA on cells; assay: flow cytometry on H929 multiple myeloma cells, PE anti-human Fc F(ab')2 detection; estimated EC50
Method: (§1) Briefly, cultured cells are harvested, counted and cell viability was evaluated using ViCell. Viable cells are then adjusted to 2×10⁶ cells per ml in BSA-containing FACS Stain Buffer (BD Biosciences). 100 μl of this cell suspension were further aliquoted per well into a round-bottom 96-well plate and incubated with 30 μl of the anti-BCMA antibodies or corresponding IgG control for 30 min at 4° c. All Anti-BCMA/anti-CD3 TCB antibodies (and TCB controls) were titrated and analyzed in final concentration range between 1-300 nM. Cells were then centrifuged (5 min, 350×g), washed with 120 μl/well FACS Stain Buffer (BD Biosciences), resuspended and incubated for an additional 30 min at 4° C. with fluorochrome-conjugated PE-conjugated AffiniPure F(ab′)2 Fragment goat anti-human IgG Fc Fragment Specific (Jackson Immuno Research Lab; 109-116-170). Cells were then washed twice with Stain Buffer (BD Biosciences), fixed using 100 ul BD Fixation buffer per well (#BD Biosciences, 554655) at 4° C. for 20 min, resuspended in 120 μl FACS buffer and analyzed using BD FACS CantoII.

human BCMA on cells [3] = molecular target: T1, human BCMA on cells; assay: cell-based or functional assay; remark: listed apart in the source
human BCMA on cells [4] = molecular target: T1, human BCMA on cells; assay: cell-based or functional assay; remark: listed apart in the source
human BCMA on cells [5] = molecular target: T1, human BCMA on cells; assay: cell-based or functional assay; remark: listed apart in the source
human BCMA on cells [6] = molecular target: T1, human BCMA on cells; assay: cell-based or functional assay; remark: listed apart in the source
human BCMA on cells [7] = molecular target: T1, human BCMA on cells; assay: cell-based or functional assay; remark: listed apart in the source
human BCMA on cells [8] = molecular target: T1, human BCMA on cells; assay: flow cytometry on RPMI-8226 multiple myeloma cells, PE anti-human Fc F(ab')2 detection; asterisk: extrapolated by Prism
Method: as §1

human BCMA on cells [9] = molecular target: T1, human BCMA on cells; assay: flow cytometry on L363 multiple myeloma cells, PE anti-human Fc F(ab')2 detection; estimated EC50
Method: as §1

human BCMA on cells [10] = molecular target: T1, human BCMA on cells; assay: flow cytometry on RPMI-8226 multiple myeloma cells, PE anti-human Fc F(ab')2 detection; estimated EC50
Method: as §1

B1: 83A10-TCBcv (bispecific antibody, human IgG1, kappa, L234A L235A)
heavy 1: not shown
heavy 2: not shown
light 1: not shown
light 2: EVQLLESGGGLVQPGGSLRLSCAASGFTFSTYAMNWVRQAPGKGLEWVSRIRSKYNNYATYYADSVKGRFTISRDDSKNTLYLQMNSLRAEDTAVYYCVRHGNFGNSYVSWFAYWGQGTLVTVSSASVAAPSVFIFPPSDEQLKSGTASVVCLLNNFYPREAKVQWKVDNALQSGNSQESVTEQDSKDSTYSLSSTLTLSKADYEKHKVYACEVTHQGLSSPVTKSFNRGEC
notes: also called anti-BCMA/anti-CD3 T cell bispecific antibody 83A10-TCBcv
Human BCMA on cells [1]
  EC50 of redirected T-cell killing of H929 cells (LDH release), Donor 1: 0.0039 nM
  EC50 of redirected T-cell killing of H929 cells (LDH release), Donor 3: 0.0085 nM
  EC50 of redirected T-cell killing of H929 cells (LDH release), Donor 4: 0.005 nM
  EC50 of redirected T-cell killing of H929 cells (LDH release), Donor 5: 0.0043 nM
  EC50 of redirected T-cell killing of H929 cells (LDH release), Donor 6: 0.0015 nM
Human BCMA on cells [2]
  EC50: 12 nM and 1.73 µg/mL
Human BCMA on cells [3]
  Lysis of JJN-3 cells (%) at 0.1 pM TCB, Experiment 2: 22.3%
  Lysis of JJN-3 cells (%) at 1 pM TCB, Experiment 1: 24.4%
  Lysis of JJN-3 cells (%) at 1 pM TCB, Experiment 2: -1.88%
  Lysis of JJN-3 cells (%) at 10 pM TCB, Experiment 1: 41.9%
  Lysis of JJN-3 cells (%) at 10 pM TCB, Experiment 2: 39.6%
  Lysis of JJN-3 cells (%) at 100 pM TCB, Experiment 1: 18.4%
  Lysis of JJN-3 cells (%) at 100 pM TCB, Experiment 2: 20.1%
  Lysis of JJN-3 cells (%) at 1000 pM TCB, Experiment 1: 26.7%
  Lysis of JJN-3 cells (%) at 1000 pM TCB, Experiment 2: 25.3%
  Lysis of JJN-3 cells (%) at 10000 pM TCB, Experiment 1: 70.3%
  Lysis of JJN-3 cells (%) at 10000 pM TCB, Experiment 2: 51.2%
Human BCMA on cells [4]
  EC50 of Granzyme B secretion, PBMC plus RPMI-8226 cells (CBA): 0.34 nM
  EC50 of IL-10 secretion, PBMC plus RPMI-8226 cells (CBA): 0.3 nM
  EC50 of TNF-α secretion, PBMC plus RPMI-8226 cells (CBA): 0.52 nM
Human BCMA on cells [5]
  EC50 of redirected T-cell killing of RPMI-8226 cells (LDH release), Donor 2: 0.621 nM
  EC50 of redirected T-cell killing of RPMI-8226 cells (LDH release), Donor 3: 0.229 nM
  EC50 of redirected T-cell killing of RPMI-8226 cells (LDH release), Donor 4: 0.035 nM
  EC50 of redirected T-cell killing of RPMI-8226 cells (LDH release), Donor 5: 0.0649 nM
Human BCMA on cells [6]
  EC50 of redirected T-cell killing of L363 cells (LDH release), Donor 1: 0.0168 nM
  EC50 of redirected T-cell killing of L363 cells (LDH release), Donor 2: 0.0478 nM
  EC50 of redirected T-cell killing of L363 cells (LDH release), Donor 3: 0.0284 nM
  EC50 of redirected T-cell killing of L363 cells (LDH release), Donor 4: 0.0126 nM
  EC50 of redirected T-cell killing of L363 cells (LDH release), Donor 5: 0.039 nM
Human BCMA on cells [7]
  Annexin-V positive JJN-3 cells (%) at 0.1 pM TCB, Experiment 2: 13.1%
  Annexin-V positive JJN-3 cells (%) at 1 pM TCB, Experiment 1: 11.4%
  Annexin-V positive JJN-3 cells (%) at 1 pM TCB, Experiment 2: 14.3%
  Annexin-V positive JJN-3 cells (%) at 10 pM TCB, Experiment 1: 11.1%
  Annexin-V positive JJN-3 cells (%) at 10 pM TCB, Experiment 2: 15.9%
  Annexin-V positive JJN-3 cells (%) at 100 pM TCB, Experiment 1: 9.12%
  Annexin-V positive JJN-3 cells (%) at 100 pM TCB, Experiment 2: 16.5%
  Annexin-V positive JJN-3 cells (%) at 1000 pM TCB, Experiment 1: 10.2%
  Annexin-V positive JJN-3 cells (%) at 1000 pM TCB, Experiment 2: 17.5%
  Annexin-V positive JJN-3 cells (%) at 10000 pM TCB, Experiment 1: 16.8%
  Annexin-V positive JJN-3 cells (%) at 10000 pM TCB, Experiment 2: 22.9%
Human BCMA on cells [8]
  EC50: > 300 nM and ~27200 µg/mL
Human BCMA on cells [9]
  EC50: 17.4 nM and 2.51 µg/mL

B2: 42-TCBcv (bispecific antibody, human IgG1, kappa, L234A L235A)
heavy 1: not shown
heavy 2: EVQLLESGGGLVQPGGSLRLSCAASGFTFSDNAMGWVRQAPGKGLEWVSAISGPGSSTYYADSVKGRFTISRDNSKNTLYLQMNSLRAEDTAVYYCAKVLGWFDYWGQGTLVTVSSASTKGPSVFPLAPSSKSTSGGTAALGCLVEDYFPEPVTVSWNSGALTSGVHTFPAVLQSSGLYSLSSVVTVPSSSLGTQTYICNVNHKPSNTKVDEKVEPKSCDKTHTCPPCPAPEAAGGPSVFLFPPKPKDTLMISRTPEVTCVVVDVSHEDPEVKFNWYVDGVEVHNAKTKPREEQYNSTYRVVSVLTVLHQDWLNGKEYKCKVSNKALGAPIEKTISKAKGQPREPQVCTLPPSRDELTKNQVSLSCAVKGFYPSDIAVEWESNGQPENNYKTTPPVLDSDGSFFLVSKLTVDKSRWQQGNVFSCSVMHEALHNHYTQKSLSLSPGK
light 1: EIVLTQSPGTLSLSPGERATLSCRASQSVSDEYLSWYQQKPGQAPRLLIHSASTRATGIPDRFSGSGSGTDFTLAISRLEPEDFAVYYCQQYGYPPDFTFGQGTKVEIKRTVAAPSVFIFPPSDRKLKSGTASVVCLLNNFYPREAKVQWKVDNALQSGNSQESVTEQDSKDSTYSLSSTLTLSKADYEKHKVYACEVTHQGLSSPVTKSFNRGEC
light 2: B1 light 2
notes: also called 42-TCVcv; anti-BCMA/anti-CD3 T cell bispecific antibody of Mab42
Human BCMA on cells [1]
  EC50 of redirected T-cell killing of H929 cells (LDH release), Donor 1: 0.0097 nM
  EC50 of redirected T-cell killing of H929 cells (LDH release), Donor 3: 0.0117 nM
  EC50 of redirected T-cell killing of H929 cells (LDH release), Donor 4: 0.0072 nM
  EC50 of redirected T-cell killing of H929 cells (LDH release), Donor 5: 0.0068 nM
Human BCMA on cells [10]
  EC50: 13.2 nM and 1.91 µg/mL
Human BCMA on cells [2]
  EC50: 13.6 nM and 1.96 µg/mL
Human BCMA on cells [3]
  Lysis of JJN-3 cells (%) at 0.1 pM TCB, Experiment 2: 17.6%
  Lysis of JJN-3 cells (%) at 1 pM TCB, Experiment 1: 40.3%
  Lysis of JJN-3 cells (%) at 1 pM TCB, Experiment 2: 34.9%
  Lysis of JJN-3 cells (%) at 10 pM TCB, Experiment 1: 39%
  Lysis of JJN-3 cells (%) at 10 pM TCB, Experiment 2: 39.4%
  Lysis of JJN-3 cells (%) at 100 pM TCB, Experiment 1: 41.9%
  Lysis of JJN-3 cells (%) at 100 pM TCB, Experiment 2: 55.3%
  Lysis of JJN-3 cells (%) at 1000 pM TCB, Experiment 1: 84%
  Lysis of JJN-3 cells (%) at 1000 pM TCB, Experiment 2: 81.1%
  Lysis of JJN-3 cells (%) at 10000 pM TCB, Experiment 1: 92.9%
  Lysis of JJN-3 cells (%) at 10000 pM TCB, Experiment 2: 90.4%
Human BCMA on cells [5]
  EC50 of redirected T-cell killing of RPMI-8226 cells (LDH release), Donor 2: 0.383 nM
  EC50 of redirected T-cell killing of RPMI-8226 cells (LDH release), Donor 3: 0.0187 nM
  EC50 of redirected T-cell killing of RPMI-8226 cells (LDH release), Donor 4: 0.0035 nM
  EC50 of redirected T-cell killing of RPMI-8226 cells (LDH release), Donor 5: 0.0015 nM
Human BCMA on cells [6]
  EC50 of redirected T-cell killing of L363 cells (LDH release), Donor 1: 0.0155 nM
  EC50 of redirected T-cell killing of L363 cells (LDH release), Donor 2: 0.0167 nM
  EC50 of redirected T-cell killing of L363 cells (LDH release), Donor 3: 0.0052 nM
  EC50 of redirected T-cell killing of L363 cells (LDH release), Donor 4: 0.0022 nM
  EC50 of redirected T-cell killing of L363 cells (LDH release), Donor 5: 0.0106 nM
Human BCMA on cells [7]
  Annexin-V positive JJN-3 cells (%) at 0.1 pM TCB, Experiment 2: 12.8%
  Annexin-V positive JJN-3 cells (%) at 1 pM TCB, Experiment 1: 11.9%
  Annexin-V positive JJN-3 cells (%) at 1 pM TCB, Experiment 2: 13.5%
  Annexin-V positive JJN-3 cells (%) at 10 pM TCB, Experiment 1: 12.3%
  Annexin-V positive JJN-3 cells (%) at 10 pM TCB, Experiment 2: 13.6%
  Annexin-V positive JJN-3 cells (%) at 100 pM TCB, Experiment 1: 8.62%
  Annexin-V positive JJN-3 cells (%) at 100 pM TCB, Experiment 2: 14.4%
  Annexin-V positive JJN-3 cells (%) at 1000 pM TCB, Experiment 1: 16.8%
  Annexin-V positive JJN-3 cells (%) at 1000 pM TCB, Experiment 2: 21.7%
  Annexin-V positive JJN-3 cells (%) at 10000 pM TCB, Experiment 1: 24.8%
  Annexin-V positive JJN-3 cells (%) at 10000 pM TCB, Experiment 2: 26.9%
Human BCMA on cells [9]
  EC50: 3.8 nM and 0.553 µg/mL
